B1: Genetic suppressor element 1 (Homo sapiens), Q14687 (parent)
chain: MKGMSHEPKSPSLGMLSTATRTTATVNPLTPSPLNGALVPSGSPATSSALSAQAAPSSSFAAALRKLAKQAEEPRGSSLSSESSPVSSPATNHSSPASTPKRVPMGPIIVPPGGHSVPSTPPVVTIAPTKTVNGVWRSESRQDAGSRSSSGGRERLIVEPPLPQEKAGGPAIPSHLLSTPYPFGLSPSSVVQDSRFPPLNLQRPVHHVVPPSTVTEDYLRSFRPYHTTDDLRMSSLPPLGLDPATAAAYYHPSYLAPHPFPHPAFRMDDSYCLSALRSPFYPIPTPGSLPPLHPSAMHLHLSGVRYPPELSHSSLAALHSERMSGLSAERLQMDEELRREREREREREREREADREREKEREREREKEREQEKEREREKERERELERQREQRAREKELLAAKALEPSFLPVAELHGLRGHATEERGKPSEQLTPTRAEKLKDAGLQAPKPVQHPLHPVPTPHHTVPSLISNHGIFSLPSSSAATALLIQRTNEEEKWLARQRRLRQEKEDRQSQVSEFRQQVLEQHLDMGRPPVPAEAEHRPESTTRPGPNRHEPGGRDPPQHFGGPPPLISPKPQLHAAPTALWNPVSLMDNTLETRRAESHSLHSHPAAFEPSRQAAVPLVKVERVFCPEKAEEGPRKREPAPLDKYQPPPPPPREGGSLEHQPFLPGPGPFLAELEKSTQTILGQQRASLPQAATFGELSGPLKPGSPYRPPVPRAPDPAYIYDEFLQQRRRLVSKLDLEERRRREAQEKGYYYDLDDSYDESDEEEVRAHLRCVAEQPPLKLDTSSEKLEFLQLFGLTTQQQKEELVAQKRRKRRRMLRERSPSPPTIQSKRQTPSPRLALSTRYSPDEMNNSPNFEEKKKFLTIFNLTHISAEKRKDKERLVEMLRAMKQKALSAAVADSLTNSPRDSPAVSLSEPATQQASLDVEKPVGVAASLSDIPKAAEPGKLEQVRPQELSRVQELAPASGEKARLSEAPGGKKSLSMLHYIRGAAPKDIPVPLSHSTNGKSKPWEPFVAEEFAHQFHESVLQSTQKALQKHKGSVAVLSAEQNHKVDTSVHYNIPELQSSSRAPPPQHNGQQEPPTARKGPPTQELDRDSEEEEEEDDEDGEDEEEVPKRKWQGIEAVFEAYQEHIEEQNLERQVLQTQCRRLEARHYSLSLTAEQLSHSVAELRSQKQKMVSERERLQAELDHLRKCLALPAMHWPRGYLKGYPR
partner: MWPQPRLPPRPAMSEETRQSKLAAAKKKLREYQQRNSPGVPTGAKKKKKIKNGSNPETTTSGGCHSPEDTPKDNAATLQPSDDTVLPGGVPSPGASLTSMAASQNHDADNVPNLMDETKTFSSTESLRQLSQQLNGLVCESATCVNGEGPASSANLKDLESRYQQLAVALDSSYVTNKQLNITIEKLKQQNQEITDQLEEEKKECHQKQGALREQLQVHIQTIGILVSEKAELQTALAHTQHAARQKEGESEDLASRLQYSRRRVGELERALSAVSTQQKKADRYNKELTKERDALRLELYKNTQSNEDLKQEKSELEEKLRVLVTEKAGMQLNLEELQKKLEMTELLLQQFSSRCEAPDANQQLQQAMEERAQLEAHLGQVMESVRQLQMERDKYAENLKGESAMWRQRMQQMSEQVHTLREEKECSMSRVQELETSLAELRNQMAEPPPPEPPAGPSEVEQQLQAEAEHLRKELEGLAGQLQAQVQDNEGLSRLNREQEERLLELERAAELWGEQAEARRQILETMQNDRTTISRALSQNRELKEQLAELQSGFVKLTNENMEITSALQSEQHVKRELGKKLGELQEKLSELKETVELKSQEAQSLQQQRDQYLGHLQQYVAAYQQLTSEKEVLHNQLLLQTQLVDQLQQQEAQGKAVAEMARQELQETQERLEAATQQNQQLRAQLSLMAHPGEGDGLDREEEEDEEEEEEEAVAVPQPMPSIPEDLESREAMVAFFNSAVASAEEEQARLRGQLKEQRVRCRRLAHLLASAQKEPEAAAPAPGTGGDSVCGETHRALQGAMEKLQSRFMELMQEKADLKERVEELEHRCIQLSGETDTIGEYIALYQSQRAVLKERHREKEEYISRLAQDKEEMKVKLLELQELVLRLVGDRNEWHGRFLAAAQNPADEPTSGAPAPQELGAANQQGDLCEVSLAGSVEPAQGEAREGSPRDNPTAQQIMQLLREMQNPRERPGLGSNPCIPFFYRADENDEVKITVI
B2: F-box/LRR-repeat protein 12 (Homo sapiens), Q9NXK8 (parent)
chain: MATLVELPDSVLLEIFSYLPVRDRIRISRVCHRWKRLVDDRWLWRHVDLTLYTMRPKVMWHLLRRYMASRLHSLRMGGYLFSGSQAPQLSPALLRALGQKCPNLKRLCLHVADLSMVPITSLPSTLRTLELHSCEISMAWLHKQQDPTVLPLLECIVLDRVPAFRDEHLQGLTRFRALRSLVLGGTYRVTETGLDAGLQELSYLQRLEVLGCTLSADSTLLAISRHLRDVRKIRLTVRGLSAPGLAVLEGMPALESLCLQGPLVTPEMPSPTEILSSCLTMPKLRVLELQGLGWEGQEAEKILCKGLPHCMVIVRACPKESMDWWM
B3: Syntaxin-3 (Homo sapiens), Q13277 (parent)
chain: MKDRLEQLKAKQLTQDDDTDAVEIAIDNTAFMDEFFSEIEETRLNIDKISEHVEEAKKLYSIILSAPIPEPKTKDDLEQLTTEIKKRANNVRNKLKSMEKHIEEDEVRSSADLRIRKSQHSVLSRKFVEVMTKYNEAQVDFRERSKGRIQRQLEITGKKTTDEELEEMLESGNPAIFTSGIIDSQISKQALSEIEGRHKDIVRLESSIKELHDMFMDIAMLVENQGEMLDNIELNVMHTVDHVEKARDETKKAVKYQSQARKKLIIIIVLVVVLLGILALIIGLSVGLN
B4: Ribosome assembly protein METTL17, mitochondrial (Homo sapiens), Q9H7H0 (parent)
chain: MAAALKCLLTLGRWCPGLGVAPQARALAALVPGVTQVDNKSGFLQKRPHRQHPGILKLPHVRLPQALANGAQLLLLGSAGPTMENQVQTLTSYLWSRHLPVEPEELQRRARHLEKKFLENPDLSQTEEKLRGAVLHALRKTTYHWQELSYTEGLSLVYMAARLDGGFAAVSRAFHEIRARNPAFQPQTLMDFGSGTGSVTWAAHSIWGQSLREYMCVDRSAAMLVLAEKLLKGGSESGEPYIPGVFFRQFLPVSPKVQFDVVVSAFSLSELPSKADRTEVVQTLWRKTGHFLVLVENGTKAGHSLLMDARDLVLKGKEKSPLDPRPGFVFAPCPHELPCPQLTNLACSFSQAYHPIPFSWNKKPKEEKFSMVILARGSPEEAHRWPRITQPVLKRPRHVHCHLCCPDGHMQHAVLTARRHGRDLYRCARVSSWGDLLPVLTPSAFPPSTAQDPSES
partner: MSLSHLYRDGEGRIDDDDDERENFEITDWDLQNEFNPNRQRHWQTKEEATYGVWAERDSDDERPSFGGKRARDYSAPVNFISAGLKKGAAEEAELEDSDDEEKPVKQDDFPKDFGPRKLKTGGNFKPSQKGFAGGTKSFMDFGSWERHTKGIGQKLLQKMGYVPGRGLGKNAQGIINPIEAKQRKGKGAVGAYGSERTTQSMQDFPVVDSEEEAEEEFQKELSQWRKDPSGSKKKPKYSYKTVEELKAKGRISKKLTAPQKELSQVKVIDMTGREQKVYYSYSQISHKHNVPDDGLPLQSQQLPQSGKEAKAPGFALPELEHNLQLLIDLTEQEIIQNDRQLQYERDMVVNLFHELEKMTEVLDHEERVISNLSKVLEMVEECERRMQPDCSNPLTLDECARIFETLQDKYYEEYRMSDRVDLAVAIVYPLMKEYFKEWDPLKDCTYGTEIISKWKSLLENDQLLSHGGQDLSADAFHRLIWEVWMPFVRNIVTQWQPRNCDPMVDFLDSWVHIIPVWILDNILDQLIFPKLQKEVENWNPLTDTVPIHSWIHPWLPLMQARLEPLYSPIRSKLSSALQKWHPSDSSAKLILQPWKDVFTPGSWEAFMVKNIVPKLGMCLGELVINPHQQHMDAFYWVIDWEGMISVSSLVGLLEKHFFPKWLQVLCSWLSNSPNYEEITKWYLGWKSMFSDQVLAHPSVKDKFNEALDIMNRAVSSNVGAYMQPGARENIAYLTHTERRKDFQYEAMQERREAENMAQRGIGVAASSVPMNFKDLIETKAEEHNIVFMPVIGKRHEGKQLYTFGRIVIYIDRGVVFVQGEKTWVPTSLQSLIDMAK
B5: Serine hydroxymethyltransferase, mitochondrial (Homo sapiens), P34897 (parent)
chain: MLYFSLFWAARPLQRCGQLVRMAIRAQHSNAAQTQTGEANRGWTGQESLSDSDPEMWELLQREKDRQCRGLELIASENFCSRAALEALGSCLNNKYSEGYPGKRYYGGAEVVDEIELLCQRRALEAFDLDPAQWGVNVQPYSGSPANLAVYTALLQPHDRIMGLDLPDGGHLTHGYMSDVKRISATSIFFESMPYKLNPKTGLIDYNQLALTARLFRPRLIIAGTSAYARLIDYARMREVCDEVKAHLLADMAHISGLVAAKVIPSPFKHADIVTTTTHKTLRGARSGLIFYRKGVKAVDPKTGREIPYTFEDRINFAVFPSLQGGPHNHAIAAVAVALKQACTPMFREYSLQVLKNARAMADALLERGYSLVSGGTDNHLVLVDLRPKGLDGARAERVLELVSITANKNTCPGDRSAITPGGLRLGAPALTSRQFREDDFRRVVDFIDEGVNIGLEVKSKTAKLQDFKSFLLKDSETSQRLANLRQRVEQFARAFPMPGFDEH
partner: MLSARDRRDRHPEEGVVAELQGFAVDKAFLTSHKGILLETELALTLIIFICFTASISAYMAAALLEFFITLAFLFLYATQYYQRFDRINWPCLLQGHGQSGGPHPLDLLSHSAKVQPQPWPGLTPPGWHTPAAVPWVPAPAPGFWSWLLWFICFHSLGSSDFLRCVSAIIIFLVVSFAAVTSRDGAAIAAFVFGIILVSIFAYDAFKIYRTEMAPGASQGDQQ
B6: Ligand of Numb protein X 2 (Homo sapiens), Q8N448 (parent)
chain: MGTTSDEMVSVEQTSSSSLNPLCFECGQQHWTRENHLYNYQNEVDDDLVCHICLQPLLQPLDTPCGHTFCYKCLRNFLQEKDFCPLDRKRLHFKLCKKSSILVHKLLDKLLVLCPFSSVCKDVMQRCDLEAHLKNRCPGASHRRVALERRKTSRTQAEIENENGPTLLDPAGTLSPEADCLGTGAVPVERHLTSASLSTWSEEPGLDNPAFEESAGADTTQQPLSLPEGEITTIEIHRSNPYIQLGISIVGGNETPLINIVIQEVYRDGVIARDGRLLAGDQILQVNNYNISNVSHNYARAVLSQPCNTLHLTVLRERRFGNRAHNHSDSNSPREEIFQVALHKRDSGEQLGIKLVRRTDEPGVFILDLLEGGLAAQDGRLSSNDRVLAINGHDLKYGTPELAAQIIQASGERVNLTIARPGKPQPGNTIREAGNHSSSSQHHTPPPYYSRPSSHKDLTQCVTCQEKHITVKKEPHESLGMTVAGGRGSKSGELPIFVTSVPPHGCLARDGRIKRGDVLLNINGIDLTNLSHSEAVAMLKASAASPAVALKALEVQIVEEATQNAEEQPSTFSENEYDASWSPSWVMWLGLPSTLHSCHDIVLRRSYLGSWGFSIVGGYEENHTNQPFFIKTIVLGTPAYYDGRLKCGDMIVAVNGLSTVGMSHSALVPMLKEQRNKVTLTVICWPGSLV
partner: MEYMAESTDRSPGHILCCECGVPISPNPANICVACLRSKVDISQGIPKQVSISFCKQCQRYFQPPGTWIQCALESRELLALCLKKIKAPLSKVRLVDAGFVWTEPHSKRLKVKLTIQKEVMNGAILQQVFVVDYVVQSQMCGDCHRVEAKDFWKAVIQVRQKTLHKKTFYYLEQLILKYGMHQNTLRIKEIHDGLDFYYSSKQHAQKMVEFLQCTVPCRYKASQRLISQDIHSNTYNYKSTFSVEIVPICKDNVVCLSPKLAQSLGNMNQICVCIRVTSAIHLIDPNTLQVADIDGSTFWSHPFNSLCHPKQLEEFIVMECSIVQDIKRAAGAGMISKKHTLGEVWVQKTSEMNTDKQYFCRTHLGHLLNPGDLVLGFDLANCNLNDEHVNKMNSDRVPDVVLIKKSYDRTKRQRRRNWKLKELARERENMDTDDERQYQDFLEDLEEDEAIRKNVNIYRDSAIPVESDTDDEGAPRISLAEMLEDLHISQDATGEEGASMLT

Variants of: B1
Details: with goga2_human GOLGA2, Q08379

| effect of a mutation on the interaction | Variant |
| --- | --- |
| with no effect | E368K |

Variants of: B1
Details: with goga2_human GOLGA2, Q08379
Remark: another data set of the same source

| effect of a mutation on the interaction | Variant |
| --- | --- |
| with no effect | R503Q |

Variants of: B2
Details: with dock8_human DOCK8, Q8NF50
Sequence of dock8_human DOCK8, Q8NF50 (Q8NF50 whole entry): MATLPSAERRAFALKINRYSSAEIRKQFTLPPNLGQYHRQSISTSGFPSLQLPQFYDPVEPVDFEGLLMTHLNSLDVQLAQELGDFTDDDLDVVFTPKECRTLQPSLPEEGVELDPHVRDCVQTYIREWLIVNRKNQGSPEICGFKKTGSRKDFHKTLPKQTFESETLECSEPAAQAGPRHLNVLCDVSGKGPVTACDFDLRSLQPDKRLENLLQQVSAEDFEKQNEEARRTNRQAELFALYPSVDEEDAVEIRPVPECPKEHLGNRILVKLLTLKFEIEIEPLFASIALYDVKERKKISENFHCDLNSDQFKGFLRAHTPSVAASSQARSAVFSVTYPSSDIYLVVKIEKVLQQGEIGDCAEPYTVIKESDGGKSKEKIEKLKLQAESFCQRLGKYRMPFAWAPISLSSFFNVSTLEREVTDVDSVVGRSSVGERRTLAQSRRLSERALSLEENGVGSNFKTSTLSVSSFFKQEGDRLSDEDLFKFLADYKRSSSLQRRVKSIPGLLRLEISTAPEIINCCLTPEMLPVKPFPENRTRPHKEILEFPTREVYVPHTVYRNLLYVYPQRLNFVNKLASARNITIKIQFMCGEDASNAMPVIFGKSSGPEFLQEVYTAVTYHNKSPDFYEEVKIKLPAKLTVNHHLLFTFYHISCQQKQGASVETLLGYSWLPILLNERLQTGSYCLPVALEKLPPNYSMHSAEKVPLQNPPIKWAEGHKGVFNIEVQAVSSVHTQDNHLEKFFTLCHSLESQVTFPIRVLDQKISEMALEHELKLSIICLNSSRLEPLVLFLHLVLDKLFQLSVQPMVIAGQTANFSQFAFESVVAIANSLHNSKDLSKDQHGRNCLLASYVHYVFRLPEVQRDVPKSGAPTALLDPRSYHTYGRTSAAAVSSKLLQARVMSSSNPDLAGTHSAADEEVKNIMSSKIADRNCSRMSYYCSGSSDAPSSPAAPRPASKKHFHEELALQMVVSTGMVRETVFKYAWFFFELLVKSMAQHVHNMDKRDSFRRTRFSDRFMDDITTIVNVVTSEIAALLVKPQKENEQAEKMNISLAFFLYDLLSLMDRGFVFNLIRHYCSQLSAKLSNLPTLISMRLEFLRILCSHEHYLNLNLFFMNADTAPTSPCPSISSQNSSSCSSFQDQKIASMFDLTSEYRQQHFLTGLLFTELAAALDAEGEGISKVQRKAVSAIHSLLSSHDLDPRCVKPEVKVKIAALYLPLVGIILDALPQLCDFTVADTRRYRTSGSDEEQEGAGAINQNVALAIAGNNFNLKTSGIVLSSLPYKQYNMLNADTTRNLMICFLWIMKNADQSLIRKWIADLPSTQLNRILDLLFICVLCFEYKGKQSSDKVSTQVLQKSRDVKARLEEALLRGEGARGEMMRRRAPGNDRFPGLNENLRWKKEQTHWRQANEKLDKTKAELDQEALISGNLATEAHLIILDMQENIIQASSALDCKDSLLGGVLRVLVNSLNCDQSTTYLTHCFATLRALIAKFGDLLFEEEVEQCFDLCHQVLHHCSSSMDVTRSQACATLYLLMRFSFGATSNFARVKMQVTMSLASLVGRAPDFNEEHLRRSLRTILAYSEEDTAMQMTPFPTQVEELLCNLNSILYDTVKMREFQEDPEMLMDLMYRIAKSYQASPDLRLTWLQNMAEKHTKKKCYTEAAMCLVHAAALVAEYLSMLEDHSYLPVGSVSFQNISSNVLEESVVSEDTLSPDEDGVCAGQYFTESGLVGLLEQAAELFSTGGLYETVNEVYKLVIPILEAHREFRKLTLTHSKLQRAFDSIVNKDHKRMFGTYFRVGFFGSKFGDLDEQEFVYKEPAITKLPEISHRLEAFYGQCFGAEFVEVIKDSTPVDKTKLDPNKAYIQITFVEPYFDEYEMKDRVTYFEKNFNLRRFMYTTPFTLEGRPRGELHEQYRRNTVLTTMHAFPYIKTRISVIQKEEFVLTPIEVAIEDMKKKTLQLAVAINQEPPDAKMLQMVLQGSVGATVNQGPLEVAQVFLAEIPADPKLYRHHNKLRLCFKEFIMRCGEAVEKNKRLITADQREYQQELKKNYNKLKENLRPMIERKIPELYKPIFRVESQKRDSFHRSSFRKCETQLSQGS

| effect of a mutation on the interaction | Variant |
| --- | --- |
| with no effect | I313V |

Variants of: B3
Details: with stx4_human STX4, Q12846
Sequence of stx4_human STX4, Q12846 (Q12846 whole entry): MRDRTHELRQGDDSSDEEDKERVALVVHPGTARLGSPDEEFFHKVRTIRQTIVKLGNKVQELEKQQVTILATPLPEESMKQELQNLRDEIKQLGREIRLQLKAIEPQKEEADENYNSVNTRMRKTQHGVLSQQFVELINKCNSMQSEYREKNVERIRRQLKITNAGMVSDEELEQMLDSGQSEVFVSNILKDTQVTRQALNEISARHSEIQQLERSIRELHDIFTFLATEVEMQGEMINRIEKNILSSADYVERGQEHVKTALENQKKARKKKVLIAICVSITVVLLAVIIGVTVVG

| effect of a mutation on the interaction | Variant |
| --- | --- |
| with no effect | K199E |

Variants of: B4
Details: with tfp11_human TFIP11, Q9UBB9

| effect of a mutation on the interaction | Variant |
| --- | --- |
| disrupting interaction strength | R212H |

Variants of: B5
Details: with cklf5_human CMTM5, Q96DZ9

| effect of a mutation on the interaction | Variant |
| --- | --- |
| disrupting interaction strength | V112M |

Variants of: B6
Details: with nmd3_human NMD3, Q96D46

| effect of a mutation on the interaction | Variant |
| --- | --- |
| with no effect | P669A |

— IntAct's records for PubMed 29892012
